Test results taken from US9969812B2, “Anti human Notch4 antibody” (Eisai R&D Management Co., Ltd., priority 2015, dated 2018).

Molecular target: T1, Human Notch4-NRR Fusion Protein (Homo sapiens, UniProt Q99466)
T1 construct: Human Notch4-NRR domain Fc fusion proteins were expressed with a CHO cell line; Fc; made in house; host or cells: CHO cell line (antigen captured from culture supernatant)
T1 sequence (Q99466 1046-1445 limits assumed): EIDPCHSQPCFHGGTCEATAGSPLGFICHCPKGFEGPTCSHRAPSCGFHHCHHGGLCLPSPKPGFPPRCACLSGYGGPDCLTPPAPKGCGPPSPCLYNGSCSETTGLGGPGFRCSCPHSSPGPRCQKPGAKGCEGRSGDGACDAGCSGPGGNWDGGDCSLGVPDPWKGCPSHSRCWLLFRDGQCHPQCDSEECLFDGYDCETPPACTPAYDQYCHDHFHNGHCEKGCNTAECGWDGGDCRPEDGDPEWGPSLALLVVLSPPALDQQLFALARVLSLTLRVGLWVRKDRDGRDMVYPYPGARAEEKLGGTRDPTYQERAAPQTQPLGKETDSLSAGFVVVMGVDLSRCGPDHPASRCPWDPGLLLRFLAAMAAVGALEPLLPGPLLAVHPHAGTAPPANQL
Assay: Kinetic analysis, captured Human Notch4-NRR Fc fusion protein, humanized antibody injected
Format: binding
Settings: Table 30, Human Notch4-NRR Fc fusion
Procedure: Kinetic analysis of further anti-Notch4 inhibitory humanized antibodies was carried out as follows. Human Notch4-NRR domain Fc fusion proteins were expressed with a CHO cell line. The antigen in the culture supernatant was captured by the anti-human Notch4 antibody fixed on a CM5 sensor chip that recognizes different epitopes of human Notch4. The humanized anti-human Notch4 antibody was then injected onto the sensor chip at various concentrations. The interaction and disassociation constants thereof were calculated according to manufacturer's instructions.
In the table below, e.g. the description “HK2L3 (Lys-)” means that the heavy chain variable region of the humanized anti-human Notch4 antibody employed in the experiment is the heavy chain variable region of the humanized anti-human Notch4 antibody heavy chain HK2 in Example 1, light chain variable region is the light chain variable region of the humanized anti-human Notch4 antibody light chain L3 in Example 1, and lysine (Lys) located at the C-terminal of the heavy chain of a common human antibody is deleted in this antibody. Those without the description “(Lys-)” mean that Lys located at the C-terminal of the heavy chain of the human antibody is not deleted.

- Rmax1 (RU): 37 RU
- ka: 1.82e+06 M⁻¹ s⁻¹
- kd: 0.000863 s⁻¹
B1: Antibody D: humanized anti-human Notch4 antibody, heavy chain variable region HK3, light chain variable region L5, C-terminal Lys deleted (antibody)
heavy: EVQLVESGGGLVQPGGSLRLSCAASGFTFSSYGMSWVRQAPGKGLELVATINSNGGRTYYPDSVKGRFTISRDNSKNTLYLQMGSLKAEDMAVYYCARDQGFAYWGQGTLVTVSSASTKGPSVFPLAPCSRSTSESTAALGCLVKDYFPEPVTVSWNSGALTSGVHTFPAVLQSSGLYSLSSVVTVPSSNFGTQTYTCNVDHKPSNTKVDKTVERKCCVECPPCPAPPAAAPSVFLFPPKPKDTLMISRTPEVTCVVVDVSHEDPEVQFNWYVDGVEVHNAKTKPREEQFNSTFRVVSVLTVVHQDWLNGKEYKCKVSNKGLPAPIEKTISKTKGQPREPQVYTLPPSREEMTKNQVSLTCLVKGFYPSDIAVEWESNGQPENNYKTTPPMLDSDGSFFLYSKLTVDKSRWQQGNVFSCSVMHEALHNHYTQKSLSLSPG
light: DIQMTQSPSSLSASVGDRVTITCKASQDVGTAVAWYQQKPGKSPKLLIYWASTRHTGVPSRFSGSGSGTDFTLTISSLQPEDVATYFCQQYSSYPWTFGQGTKVEIKRTVAAPSVFIFPPSDEQLKSGTASVVCLLNNFYPREAKVQWKVDNALQSGNSQESVTEQDSKDSTYSLSSTLTLSKADYEKHKVYACEVTHQGLSSPVTKSFNRGEC
